US20210388107A1 (BYONDIS B V, published 2021)

T1: cynomolgus monkey SIRPα expressed on ExpiCHO-S cells (cynomolgus monkey, UniProt A0A2K5VYQ9 31-507)
T1 construct: whole, on cells; also called cySIRPα; ExpiCHO-S (cySIRPα)
T1 sequence: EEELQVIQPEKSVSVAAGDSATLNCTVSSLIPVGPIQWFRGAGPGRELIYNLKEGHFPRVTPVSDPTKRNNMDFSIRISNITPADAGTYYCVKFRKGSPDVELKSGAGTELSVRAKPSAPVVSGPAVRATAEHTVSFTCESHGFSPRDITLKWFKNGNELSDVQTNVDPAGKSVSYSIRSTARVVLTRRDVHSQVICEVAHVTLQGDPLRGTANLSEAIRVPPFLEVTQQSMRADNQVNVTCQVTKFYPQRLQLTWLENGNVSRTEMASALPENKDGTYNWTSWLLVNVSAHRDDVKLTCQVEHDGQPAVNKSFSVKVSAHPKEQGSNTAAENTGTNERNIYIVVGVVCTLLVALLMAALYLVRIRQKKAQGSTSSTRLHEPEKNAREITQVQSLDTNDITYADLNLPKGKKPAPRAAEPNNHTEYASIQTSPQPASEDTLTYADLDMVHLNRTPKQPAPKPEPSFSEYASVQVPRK


Columns and labels:
[1] = target: T2, human SIRPαBIT expressed on cells (human, UniProt P78324 31-504); assay: flow cytometry, U937 cells
T2 construct: endogenous on U937 cells or transiently expressed on ExpiCHO-S cells; in the SHP-1 assay a ProLink-tagged form on Jurkat cells; also called huSIRPαBIT; U937 cells (huSIRPαBIT)
Experimental: (§1) After an incubation time of 30 min at 4° C., the cells were washed three times with ice-cold FACS buffer and 50 μl/well secondary mAb (for human antibodies, AffiniPure F(ab′)₂ fragment Goat-anti-human IgG-APC, 1:6,000 dilution, Jackson Immuno Research was added and for mouse antibodies, AffiniPure Fab fragment Goat Anti-Mouse IgG (H+L)-Alexa Fluor 488, 1:1,000 dilution, Jackson Immuno Research was added). After 30 min at 4° C., cells were washed twice and resuspended in 150 μl FACS buffer. Fluorescence intensities were determined by flow cytometry (BD FACSVerse, Franklin Lakes, N.J.) and indicated as the median fluorescence intensity (MFI-Median) for U937 cells and the mean fluorescence intensity (MFI-Mean) for ExpiCHO-S cells. Curves were fitted by nonlinear regression using the sigmoidal dose-response equation with variable slope (four parameters) in GraphPad Prism (version 7.02 for Windows, GraphPad, San Diego, Calif.). EC₅₀ values were calculated as the concentration in μg/ml that gives a response half way between bottom and top of the curve, when using a 4-parameter logistic fit.

[2] = target: T3, human SIRPα1 expressed on cells (human, UniProt P78324 31-504); assay: flow cytometry, ExpiCHO-S cells
T3 construct: whole, on cells; also called huSIRPα1; ExpiCHO-S (huSIRPα1)
Experimental: as §1

[3] = target: T2, human SIRPαBIT expressed on cells; assay: flow cytometry, ExpiCHO-S cells
Experimental: as §1

[4] = target: T1, cynomolgus monkey SIRPα expressed on …; assay: flow cytometry, ExpiCHO-S cells
Experimental: as §1

[5] = target: T4, human SIRPα1 extracellular domain 1-370, Avi-FXa-Fc tag (human, biotinylated); assay: SPR, captured biotinylated antigen
T4 construct: also called huSIRPα1; v2
Experimental: (§2) Surface Plasmon Resonance (SPR) assay: Affinity analysis was performed by single cycle kinetics analysis on a Surface Plasmon Resonance apparatus (BiaCore™ T200 system, GE Life Sciences) at 25° C. […] For each step an association time of 150 sec was used, followed by a dissociation time of 600 sec after the highest concentration only, all at a flow rate of 30 μl/min. Regeneration was performed with 6 M guanidine-HCl, 0.25 M NaOH solution (120 sec with flow rate of 30 μl/min). […] Sensorgrams were fitted with a 1:1 Langmuir model for all tested anti-SIRP antibodies. The kinetic parameters (association rate [kₐ], dissociation rate [kd] and binding constant, also referred to as equilibrium dissociation constant or binding affinity [KD]) were calculated using BiaCore™ T200 evaluation software (v3.1).

[6] = target: T5, human SIRPαBIT, extracellular domain 1-370, Avi-FXa-Fc tag (human, biotinylated); assay: SPR, captured biotinylated antigen
T5 construct: also called huSIRPαBIT; v1
Experimental: as §2

[7] = target: T6, cynomolgus monkey SIRPα, extracellular domain, Avi-FXa-Fc tag (cynomolgus monkey, biotinylated); assay: SPR, captured biotinylated antigen
T6 construct: also called cySIRPα
Experimental: as §2

[8] = target: T7, human SIRPγ, extracellular domain, Avi-FXa-Fc tag (human, biotinylated); assay: SPR, captured biotinylated antigen
T7 construct: also called huSIRPγ
Experimental: as §2

[9] = target: T8, human SIRPβ1v2, extracellular domain, Avi-FXa-Fc tag (human, biotinylated); assay: SPR, captured biotinylated antigen
T8 construct: also called huSIRPβ1v2
Experimental: as §2

[10] = target: T9, human SIRPγ on human CD3+ T-cells (human, UniProt Q9P1W8 29-387); assay: flow cytometry on CD3+ T-cells in PBMC of two healthy individuals, % of positive cells
T9 construct: whole, on cells
Experimental: (§3) Flow Cytometry assay: Peripheral mononuclear cells (PBMC) were isolated from fresh blood of healthy individuals using Percoll gradient. […] Cells (200,000 cells/well in a 96-well plate) were subsequently incubated in the presence of tested antibodies or control conditions with secondary antibodies only (secondary goat anti-human IgG Alexa 633 F(ab′)₂ fragment, dilution 1:1000, Jackson Immuno Research, and secondary goat anti-mouse IgG Alexa 633 F(ab′)₂ fragment, dilution 1:250, Invitrogen) for 30 min on ice. After that, cells were washed with FACS buffer and resuspended in a mixture of anti-human CD3 FITC antibody (dilution 1:100, Invitrogen) with respective secondary antibody (either anti-human or anti-mouse) and incubated for 30 min in the dark on ice. Afterwards the cells were washed with FACS buffer and resuspended in 150 μl of FACS buffer and fluorescence intensities were determined by flow cytometry (LSRII HTS or LSRFortessa, BD Biosciences, CA, USA) and indicated as the median fluorescence intensity (MFI-Median) and percentage of positive cells.

[11] = target: T9, human SIRPγ on human CD3+ T-cells; assay: flow cytometry on CD3+ T-cells in PBMC of two healthy individuals, MFI
Experimental: as §3

[12] = target: T10, human SIRPβ1v1, extracellular domain, Avi-FXa-Fc tag (human, biotinylated); assay: SPR, captured biotinylated antigen
T10 construct: also called huSIRPβ1v1
Experimental: as §2

T7 sequence (chain, as listed by the source limits assumed): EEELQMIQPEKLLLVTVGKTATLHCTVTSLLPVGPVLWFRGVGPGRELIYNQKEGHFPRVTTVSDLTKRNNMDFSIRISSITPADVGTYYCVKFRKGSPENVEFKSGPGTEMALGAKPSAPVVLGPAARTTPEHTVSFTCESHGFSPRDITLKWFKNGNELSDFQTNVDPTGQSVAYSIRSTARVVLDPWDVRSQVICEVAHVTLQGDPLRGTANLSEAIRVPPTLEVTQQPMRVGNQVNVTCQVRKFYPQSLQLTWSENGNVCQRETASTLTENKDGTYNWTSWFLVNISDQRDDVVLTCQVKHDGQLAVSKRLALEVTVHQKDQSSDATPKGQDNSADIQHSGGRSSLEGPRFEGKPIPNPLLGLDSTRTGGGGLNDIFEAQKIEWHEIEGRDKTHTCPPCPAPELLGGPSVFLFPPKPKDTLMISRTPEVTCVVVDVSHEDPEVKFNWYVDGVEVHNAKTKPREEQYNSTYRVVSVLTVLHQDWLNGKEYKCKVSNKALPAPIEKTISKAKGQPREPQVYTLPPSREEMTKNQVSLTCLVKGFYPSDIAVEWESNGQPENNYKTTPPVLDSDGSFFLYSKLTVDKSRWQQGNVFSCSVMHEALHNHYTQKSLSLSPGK
T9 sequence (Q9P1W8 29-387): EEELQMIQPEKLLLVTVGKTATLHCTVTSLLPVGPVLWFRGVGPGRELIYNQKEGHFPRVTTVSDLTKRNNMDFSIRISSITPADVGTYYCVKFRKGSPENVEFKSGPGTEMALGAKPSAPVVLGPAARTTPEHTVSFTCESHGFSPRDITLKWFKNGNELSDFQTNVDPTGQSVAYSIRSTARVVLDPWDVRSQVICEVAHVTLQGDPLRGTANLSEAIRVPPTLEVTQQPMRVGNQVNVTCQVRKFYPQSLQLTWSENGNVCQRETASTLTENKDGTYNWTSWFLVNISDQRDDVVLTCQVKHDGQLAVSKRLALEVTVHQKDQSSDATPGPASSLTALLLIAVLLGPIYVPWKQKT
T8 sequence (chain, as listed by the source limits assumed): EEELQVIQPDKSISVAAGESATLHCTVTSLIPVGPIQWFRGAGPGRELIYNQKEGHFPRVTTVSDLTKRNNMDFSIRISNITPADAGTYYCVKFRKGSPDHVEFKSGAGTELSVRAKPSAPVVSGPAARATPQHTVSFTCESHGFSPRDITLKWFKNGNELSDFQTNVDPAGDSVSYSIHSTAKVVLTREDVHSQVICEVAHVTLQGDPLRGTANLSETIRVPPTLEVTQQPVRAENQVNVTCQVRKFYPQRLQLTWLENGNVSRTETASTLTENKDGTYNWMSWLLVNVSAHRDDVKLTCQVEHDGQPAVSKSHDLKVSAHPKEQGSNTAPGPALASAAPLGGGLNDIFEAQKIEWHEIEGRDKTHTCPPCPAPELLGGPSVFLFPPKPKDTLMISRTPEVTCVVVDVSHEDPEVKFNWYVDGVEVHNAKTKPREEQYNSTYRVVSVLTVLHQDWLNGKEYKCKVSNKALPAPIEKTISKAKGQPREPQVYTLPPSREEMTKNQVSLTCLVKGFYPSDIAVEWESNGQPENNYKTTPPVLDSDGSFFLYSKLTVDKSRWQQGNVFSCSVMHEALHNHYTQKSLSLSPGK
T5 sequence (chain, as listed by the source limits assumed): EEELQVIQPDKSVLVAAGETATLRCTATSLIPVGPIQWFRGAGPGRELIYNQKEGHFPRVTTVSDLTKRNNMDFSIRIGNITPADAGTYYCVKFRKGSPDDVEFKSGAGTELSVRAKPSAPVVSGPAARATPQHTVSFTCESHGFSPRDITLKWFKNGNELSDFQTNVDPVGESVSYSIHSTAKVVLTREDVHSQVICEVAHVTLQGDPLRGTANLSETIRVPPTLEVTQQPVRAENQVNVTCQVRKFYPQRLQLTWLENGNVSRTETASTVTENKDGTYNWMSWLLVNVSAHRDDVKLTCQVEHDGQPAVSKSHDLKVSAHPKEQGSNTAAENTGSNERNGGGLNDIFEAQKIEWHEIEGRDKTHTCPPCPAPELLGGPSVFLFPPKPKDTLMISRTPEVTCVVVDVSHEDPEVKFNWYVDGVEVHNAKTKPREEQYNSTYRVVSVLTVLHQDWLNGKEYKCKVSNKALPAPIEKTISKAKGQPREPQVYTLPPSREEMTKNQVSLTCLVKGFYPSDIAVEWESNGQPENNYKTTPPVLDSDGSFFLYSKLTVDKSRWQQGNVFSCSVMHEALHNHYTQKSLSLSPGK
T4 sequence (chain, as listed by the source limits assumed): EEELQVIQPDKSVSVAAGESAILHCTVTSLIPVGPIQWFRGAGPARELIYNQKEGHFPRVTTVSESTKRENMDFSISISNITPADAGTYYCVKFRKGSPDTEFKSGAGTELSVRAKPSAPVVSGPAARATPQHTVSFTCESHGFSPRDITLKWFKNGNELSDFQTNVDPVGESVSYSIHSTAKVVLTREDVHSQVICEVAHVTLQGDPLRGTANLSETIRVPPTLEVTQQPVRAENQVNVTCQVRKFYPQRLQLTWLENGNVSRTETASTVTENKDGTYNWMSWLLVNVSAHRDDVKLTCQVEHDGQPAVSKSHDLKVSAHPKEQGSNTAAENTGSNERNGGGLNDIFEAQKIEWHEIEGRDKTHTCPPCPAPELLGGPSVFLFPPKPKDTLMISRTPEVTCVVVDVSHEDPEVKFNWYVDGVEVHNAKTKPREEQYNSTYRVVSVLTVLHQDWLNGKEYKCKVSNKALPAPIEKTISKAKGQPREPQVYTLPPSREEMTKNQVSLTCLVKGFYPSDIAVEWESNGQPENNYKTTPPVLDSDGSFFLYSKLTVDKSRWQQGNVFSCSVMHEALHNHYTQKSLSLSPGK
T10 sequence (chain, as listed by the source limits assumed): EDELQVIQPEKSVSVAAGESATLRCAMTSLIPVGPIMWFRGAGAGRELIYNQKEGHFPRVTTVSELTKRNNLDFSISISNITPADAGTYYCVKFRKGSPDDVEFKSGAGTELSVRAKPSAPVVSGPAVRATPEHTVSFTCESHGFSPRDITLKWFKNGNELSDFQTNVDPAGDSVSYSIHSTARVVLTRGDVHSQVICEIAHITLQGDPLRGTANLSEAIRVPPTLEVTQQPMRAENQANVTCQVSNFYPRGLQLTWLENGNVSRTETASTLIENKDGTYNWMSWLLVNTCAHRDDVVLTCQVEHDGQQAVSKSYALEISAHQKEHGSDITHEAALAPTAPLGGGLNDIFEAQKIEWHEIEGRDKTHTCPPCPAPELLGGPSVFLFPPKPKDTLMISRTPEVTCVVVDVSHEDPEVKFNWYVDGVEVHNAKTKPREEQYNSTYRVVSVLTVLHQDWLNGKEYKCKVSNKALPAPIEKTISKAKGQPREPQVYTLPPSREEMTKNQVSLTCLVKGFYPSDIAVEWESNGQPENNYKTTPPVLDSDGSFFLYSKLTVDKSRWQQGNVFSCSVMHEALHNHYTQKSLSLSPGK

| Binder | EC50 [1] | EC50 [2] | EC50 [3] | EC50 [4] | Kd [5] | Kd [6] | Kd [7] | Kd [9] | binding result [10] | binding result [11] | Kd [12] | binding result [8] |
| --- | --- | --- | --- | --- | --- | --- | --- | --- | --- | --- | --- | --- |
| humanized anti-SIRPα antibody 1 (antibody, human IgG1, kappa, L234A L235A, human IgG1 LALA, kappa; also called mAb 1) heavy: not shown light: DIQMTQSPSSLSASVGDRVTITCRASQSINSYLAWYQQKPGKAPKLLIYSASFLYSGVPSRFSGSGSGTDFTLTISSLQPEDFATYYCQSWHYISRSYTFGQGTKVEIKRTVAAPSVFIFPPSDEQLKSGTASVVCLLNNFYPREAKVQWKVDNALQSGNSQESVTEQDSKDSTYSLSSTLTLSKADYEKHKVYACEVTHQGLSSPVTKSFNRGEC | 0.09 µg/mL | 0.28 µg/mL | 0.3 µg/mL | 0.12 µg/mL | 1.49 nM | < 0.01 nM | 1.87 nM | 2.42 nM | no binding | – | – | no binding (tested: below 10 RU cut-off; up to 1600 ng/ml) |
| humanized anti-SIRPα antibody 4 (antibody, human IgG1, kappa, L234A L235A, human IgG1 LALA, kappa; also called mAb 4) heavy: not shown light: DIQMTQSPSSLSASVGDRVTITCRASQSINSYLAWYQQKPGKAPKLLIYSASFLYSGVPSRFSGSGSGTDFTLTISSLQPEDFATYYCQSWHYISRSYTFGQGTKVEIKRTVAAPSVFIFPPSDEQLKSGTASVVCLLNNFYPREAKVQWKVDNALQSGNSQESVTEQDSKDSTYSLSSTLTLSKADYEKHKVYACEVTHQGLSSPVTKSFNRGEC | 0.1 µg/mL | 0.38 µg/mL | 0.36 µg/mL | 0.14 µg/mL | 1.38 nM | < 0.01 nM | 1.94 nM | 2.34 nM | no binding | – | – | no binding (tested: below 10 RU cut-off; up to 1600 ng/ml) |
| humanized anti-SIRPα antibody 12 (antibody, human IgG1, kappa, L234A L235A, human IgG1 LALA, kappa; also called mAb 12) heavy: not shown light: DIQMTQSPSSLSASVGDRVTITCRASQSINSYLAWYQQKPGKAPKLLIYSASFLYSGVPSRFSGSGSGTDFTLTISSLQPEDFATYYCQSWHYISRSYTFGQGTKVEIKRTVAAPSVFIFPPSDEQLKSGTASVVCLLNNFYPREAKVQWKVDNALQSGNSQESVTEQDSKDSTYSLSSTLTLSKADYEKHKVYACEVTHQGLSSPVTKSFNRGEC | 0.08 µg/mL | 0.27 µg/mL | 0.26 µg/mL | 0.23 µg/mL | 1.38 nM | < 0.01 nM | 1.53 nM | 1.94 nM | – | no binding | – | no binding (tested: below 10 RU cut-off; up to 1600 ng/ml) |
| humanized anti-SIRPα antibody 11 (antibody, human IgG1, kappa, L234A L235A, V domains shown, human IgG1 LALA, kappa; also called mAb 11) VH: RQLVESGGGLVQPGGSLRLSCAASGFSLSSHGISWVRQAPGKGLEWVGTIGTGVITYYASWAKGRFTGSKTSSTAYLQMTSLRAEDTAVYYCARGSAWNDPFDYWGQGTLVTVSS VL: DIEMTQSPSSVSASVGDRVTLTCQASQSVYGNNDLAWYQQKPGQAPKLLIYLASTLATGVPSRFSGSGSGTDFTLTISSLQPEDFATYYCLGGGDDEADNVFGGGTKVEIKR | 3.73 µg/mL | 0.11 µg/mL | 0.08 µg/mL | – | 0.0349 nM | 0.212 nM | – | – | – | no binding | 2.01 nM | no binding (tested: below 10 RU cut-off; up to 1600 ng/ml) |

Continued by falling Kd [5], values first:

| EC50 [1] | EC50 [2] | EC50 [3] | EC50 [4] | Kd [5] | Kd [6] | Kd [7] | Kd [9] | binding result [10] | binding result [11] | Kd [12] | Binder | binding result [8] |
| --- | --- | --- | --- | --- | --- | --- | --- | --- | --- | --- | --- | --- |
| 0.08 µg/mL | 0.27 µg/mL | 0.28 µg/mL | 0.11 µg/mL | 1.41 nM | < 0.01 nM | 2.05 nM | 2.78 nM | – | no binding | – | humanized anti-SIRPα antibody 13 (antibody, human IgG1, kappa, L234A L235A, human IgG1 LALA, kappa; also called mAb 13) heavy: not shown light: DIQMTQSPSSLSASVGDRVTITCRASQSINSYLAWYQQKPGKAPKLLIYSASFLYSGVPSRFSGSGSGTDFTLTISSLQPEDFATYYCQSWHYISRSYTFGQGTKVEIKRTVAAPSVFIFPPSDEQLKSGTASVVCLLNNFYPREAKVQWKVDNALQSGNSQESVTEQDSKDSTYSLSSTLTLSKADYEKHKVYACEVTHQGLSSPVTKSFNRGEC | no binding (tested: below 10 RU cut-off; up to 1600 ng/ml) |
| 0.1 µg/mL | 0.32 µg/mL | 0.31 µg/mL | 0.12 µg/mL | 1.34 nM | < 0.01 nM | 2.27 nM | 2.54 nM | no binding | – | – | humanized anti-SIRPα antibody 2 (antibody, human IgG1, kappa, L234A L235A, human IgG1 LALA, kappa; also called mAb 2) heavy: not shown light: DIQMTQSPSSLSASVGDRVTITCRASQSINSYLAWYQQKPGKAPKLLIYSASFLYSGVPSRFSGSGSGTDFTLTISSLQPEDFATYYCQSWHYISRSYTFGQGTKVEIKRTVAAPSVFIFPPSDEQLKSGTASVVCLLNNFYPREAKVQWKVDNALQSGNSQESVTEQDSKDSTYSLSSTLTLSKADYEKHKVYACEVTHQGLSSPVTKSFNRGEC | no binding (tested: below 10 RU cut-off; up to 1600 ng/ml) |
| 0.12 µg/mL | 0.4 µg/mL | 0.28 µg/mL | 0.15 µg/mL | 0.908 nM | < 0.01 nM | 1.66 nM | 1.92 nM | no binding | – | – | humanized anti-SIRPα antibody 3 (antibody, human IgG1, kappa, L234A L235A, human IgG1 LALA, kappa; also called mAb 3) heavy: not shown light: DIQMTQSPSSLSASVGDRVTITCRASQSINSYLAWYQQKPGKAPKLLIYSASFLYSGVPSRFSGSGSGTDFTLTISSLQPEDFATYYCQSWHYISRSYTFGQGTKVEIKRTVAAPSVFIFPPSDEQLKSGTASVVCLLNNFYPREAKVQWKVDNALQSGNSQESVTEQDSKDSTYSLSSTLTLSKADYEKHKVYACEVTHQGLSSPVTKSFNRGEC | no binding (tested: below 10 RU cut-off; up to 1600 ng/ml) |
| 2.78 µg/mL | 0.19 µg/mL | 0.11 µg/mL | – | 0.0191 nM | 0.365 nM | – | – | – | no binding | 1.44 nM | humanized anti-SIRPα antibody 9 (antibody, human IgG1, kappa, L234A L235A, V domains shown, human IgG1 LALA, kappa; also called mAb 9) VH: RQLVESGGGLVQPGGSLRLSCAASGFSLSSHGISWVRQAPGKGLEWVGTIGTGVITYYASWAKGRFTGSKTSSTAYLQMTSLRSEDTAVYYCARGSAWNDPFDYWGQGTLVTVSS VL: DIVMTQSPSSLSASVGDRVTITCQASQSVYGNNDLAWYQQKPGQAPKLLIYLASTLATGVPSRFSGSGSGTDFTLTISSLQPEDFATYYCLGGGDDEADNTFGQGTKVEIKR | no binding (tested: below 10 RU cut-off; up to 1600 ng/ml) |
